# The DeepSol protein solubility set
# Assay: soluble on expression in E. coli; label from the status in PepcDB or PDB records
row,Sequence,soluble on expression in E. coli
1,GPGSMSRSKEPPLPEELRTRLGQMDGCATAESWESVGNECFSHGCHLSAIRCYTKALEKGSDTANLRSSRSAAYMKSSMFAGPSLALKDAERAAELEPGRCEAHLRVGDAQLARKKYAEAKAAYQKAIELDGSCTAATHALRIVERELFLRSLDEQKKFSPVTEKPSGENTGTTSTGSNAEGPLNMEEEIKKRIQLWAEDTTVREDRTAMRAFNARLDEADRQAGTKYKSELLLKFRGKMAAQEPFRRMVEERRDQEMRMGEGIDYRNADSYRAILTKGTDGVGLGISTDAYKSYKYESKMW,not soluble
2,MGSDKIHHHHHHMIRFKDIHIPKPCSVEYDTLPGDDIKRFCGSCEKYVYDFRGKDQAYLNAVFSATGKACGIYYADQIQASPALKTNRPFYSSFVSKLIATSLFLRIFLTSNNTKAHRTEPQTIVQQTTDSTELKTIHTGNDKAMYRVTVDIYKNDTLEESFLLENQNSIYLPDSIKPLDKIKVVVSTVRYNIPTSKNRTRSGKYMSNKTYYTTEQKKTYHFNFAGCNKIIIKIRHTKFIHIFLKKRTAIMGLVCPSDFW,not soluble
3,MEIGIIGTGNIGGTLARKLIAAGHQVRVANSKGIHGVQSFADEIGATAVDVYGAVKGADAIILSIPLPALASLPNGFFDDLPETVPLIDTSNYYPGLRDPLIPEIDDGMTESVWVSQQLSHPVIKAFNNILAWSLAELGTPKGSASRLAIAVAGDNATLKQIVMNLVDDTGFDAIDAGSLEESWRQQPSTPAYCCDYDAETMKKGLTAAVRGEAASKRDRLPELFGKLGANPTHEDIVAMNRSLNPLEHHHHHH,soluble
4,MGSDKIHHHHHHMTRNGIGIRTAQVRSERLTGQIHVYDGVGKGKSQAALGVVLRSIGLGINAPNNSNRVLLLRFLKGPERDYDEDGAIAALQRGFPHLIDQVRTGRAEFFGPEEITTFDRSEAGRGWDVAKGAIASGLYSVVVLDEINPVLDLGLLSVDEVVGTLKSKPQELEIIATGRGAPQKLLDIADLHSEMKPLHHPKATELLMKGIEIYTGAGKGKSTSALGKALQAIGRGINHPGSTRVLIMQWLKGGSGYTEDAAIAALRQSYPEVVDHQRCGRDAIVWRNSRQELDYVEAERGWEIAKVAIASGLYKTIILDELNPTVDLELLPVEPIVQALLRKPRDTEIIITGRCQNQPAYFDLASIHSEVYCHKHYANQGVELKRGVDF,not soluble
5,MVKKVKGRRYEGSIEQRSKNSWRMRVTVGYDYKGTPIRADRTTRTKNERERERELRNFITELEQNGYTAPARMTFKAFVENEYMPKHAQNNLEVKTWTEYYKSIVARAYPAFGGVQMDKITTLHIVNLVAKLQKPGARLDVKPTDSDEKKNKPLSPRSIRNIYFAINSVFETAVEWKVIPINPAEGVRLPKTTKRPPTIYTPAEIELLNAALVKEPLRLQVMIYIALISGCREAELAALEVKHVNLIEDELTFEQTLVAKAGEGLLLKESTKNDVAGIVSIPAWLTNLIETYISNEVLDLKTEGKWANHKFLFADMEGKPIRPDSIYQRWKRFLERHNLPVIRFHDLRHTSATLLLNKGRDIKIIQERLRHKSSVTTSNIYAHVLKDTHKDAASDFENPF,not soluble
6,MPCAETFGSEYFLAQGSPVNSTATPPEPLPPFLQPGDRVLLFDGVCKLCNASVRFVIRHDSQRRIKLASVQSPQGQALLAWFGLPTEQFDSVVLIEEGRLSQRSDAFIRLMAQLPAPWRWLRLLRGVPRPLRDWVYDLIARNRYRLFGRLDVCLLPSPDHQGRFLDDPSLEHHHHHH,not soluble
7,MGSDKIHHHHHHVKFRVERDVLAEAVTWTARSLSPRPPVPVLSGLLLKAEAGTVSLSSFDYETSARLEIPADISVEGTILVSGRLLADICRSLPSAPVDVETDGNKVTLTCRRSSFHLATMPEAEYPPLPALPTISGTVPGDSFAQAVSQVIIAASKDDTLPILTGVRMEIEDDLITLLATDRYRLAMREVPWKPVTPGISTSALVKAKTLNEVAKTLGNSGDINLALADDDSRLIGFESGGRTTTSLLVDGDYPKIRSLFPDATPIHATVQTQELVEAVRRVSLVAERNTPVRLAFTDGQLHLDAGTGEDAQASEELEAQLTGDEITVAFNPHYLIEGLSVIETKFVRFSFTTAPKPAMITAQVDADGEDQDDYRYLVMPVRLPN,not soluble
8,MGAVSAFSWASSGRLHALEVFVMKIPKTYDEIMEHFGGLIDEVTAELLESYAKGETVRVSEALAKSGRVAVEGVVLRVFPVRHFSKNGRSGKVGSVVIQDDCTVRVNFWNEAAEIIEAGDIVEGARIKVRGYARGEEIHVNSLSEVEVFVDFVNISELDEKVGERVNVKGFVSGLGEPEKANEIYISDETGRVKVLLENESLYYAVDIGSYVEIYNALAGEDGIYVDRNSRFSVGELEHHHHHH,not soluble
9,MVFGENALVLKHLGSNTKIHFNAFDALAGWKQEGLPPVEVPAAAQWKFRSKPSQQVILDYDYTFTTPYCGSEVVEKDKETVEAKANPKGEATLQWENCEDQIDLAALSLKEPILFYDEVVLYEDELADNGVSLLTVKVRVMPSSWFLLLRFWLRVDGVLMRLRETRMHYRFGEDEAPTVLRENCWREATFQSLSAKGYPVDLAVWSDPSSISQRLPVIKHTTQKLKIPSKV,not soluble
10,MGSDKIHHHHHHMAIRAKTNNLIQIRPLTGRRLANSEHNRQEMKNGATVLTSKPQRLVFELTNACNLNCLMCGRNSATFELTRFNSEWFKKFEPIMSDIEEVTLMGWGEPTIHPQFKEMLQYLHERGIRKYFCTNGMRLDVLKDAIFDYEVDVFAVSMDGADAKTNEFLRRGLNYQKVIEGLKAITNEKALRGLNFPHINFVMTMMKSNIRQLPDMVDLAAELGLNEVKGVFLTAFSENLLEETLFDDMDLVRYCFGQAEERAAKLGILLKLPHQRGEDPAGDAAHKPCFTAWRDFFLGSDGYVRACMSSPEKLFHIDQYPDFESMWNSREYQEWRAQVNVPGKMCPSCGRCYQSSFANWNKEHAFIQIDTEFSPKWEK,not soluble
11,MVWTYTYDLDNQLISANKTGSSNSLAYDGAGRLRQTTLAGTITGLTYDGVDLVAEYNSGGTLLRRYVHGPGVDEPLVWYEGTTTTNKTWLYQDQLGSVIGTANSAGTSTAIHSYGPYGEPNIATGIRFRYTGQQFLGSLNLYYYKARFYSPALGRFLQTDPIGIADDLNLYAYVGNNPINFNDPSGLSAAAASMLLGKLGSWGRENAGTLTEIGIGFTPAGFYTDLYSAVAGRTPITGDSLSGWERVAILIPGVSEIRNAGRIGSSIQGVAESTIKQVNPTNLIPTQTRSEMSGSQIKRLEKDMRTNGFDQNKPIDAVRRTDGRLEIQDGHHRVEAAKRAGIDQIPVQIWEKLEHHHHHH,not soluble
12,MSLKKFLKMFFPHDGIYEVLVGTSGIKPIIKPLGIIVEANELRSKIYKSTLTYSNLEKNNKCSIHVTLDTTFFILSMLDKLTFSIDSDYNVPVLKNLNVIYAECMKTSSTDPSIFTINPLDLEINSNLTRAYNRGDYISVDFLVNYTRLDIYKGEDLEKLVRILEYEWSVIKRTSQYTSSLLEEILNKMRSKGFKLDEGHHHHHH,not soluble
13,MGNIMSASFAPECTDLKTKYDSCFNEWYSEKFLKGKSVENECSKQWYAYTTCVNAALVKQGIKPALDEAREEAPFENGGKLKEVDK,soluble
14,MGHHHHHHGGHMSLKIYVVYDSEGEHTKVLAEAIAEGARENDAAEVFIDHVDQADIRKLKDMDAIIWGCPGHFGTISSGLKTWIDRLGYLWAEGELINKVGAVFCTTATTHGGLEMTMHNLITPMFHQGMIVVGLPGNVPENALYGSYYGAGVTCPVDSDELMSEEGIQLGRALGRRVSQVTGNLTAGQEGGS,soluble
15,MGSDKIHHHHHHMSDGRLTALFPAFPHPASNQPVFAEASPHDDELMTQAVPQVSCQQALAIAQQEYGLSGQMSLLQGERDVNFCLTVTPDERYMLKVINAAEPADVSNFQTALLLHLARQAPELPVPRIRSTKAGQSETGVEIDGVLLRVRLVSYLAGMPQYLASPSTALMPQLGGTLAQLDNALHSFTHPAANRALLWDISRAEQVRPYLDFVSEPQQYQHLQRIFDRYDSNVAPLLTTLRRQVIHNDLNPHNVLVDGSSPTRVTGIIDFGDAVFAPLICEVATALAYQIGDGTDLLEHVVPFVAAYHQRIPLAPEEIALLPDLIATRMALTLTIAQWRASRYPDNREYLLRNVPRCWHSLQRIATYSHAQFLTRLQQVCPENAR,not soluble
